Like-named read-outs stand apart in the source and are kept apart here.
Legend:
[1] = biological target: T1, E. faecalis metalloprotease GelE (bacterial supernatants) (Enterococcus faecalis, UniProt Q833V7); details: 4 h at room temperature; for quantity (%) of substrate remaining after incubation with supernatant, dilution 0.0001x: E. faecalis 30054A supernatant diluted 0.0001x in bacterial culture medium; for quantity (%) of substrate remaining after incubation with supernatant, dilution 0.0001x / quantity (%) of substrate remaining after incubation with supernatant, dilution 0.001x / quantity (%) of substrate remaining after incubation with supernatant, dilution 0.01x / quantity (%) of substrate remaining after incubation with supernatant, dilution 0.1x / quantity (%) of substrate remaining after incubation with supernatant, dilution 1x: recombinant substrate, Luminex (Milliplex) read-out, mean ± SD; for quantity (%) of substrate remaining after incubation with supernatant, dilution 0.0001x / quantity (%) of substrate remaining after incubation with supernatant, dilution 0.001x / quantity (%) of substrate remaining after incubation with supernatant, dilution 0.01x / quantity (%) of substrate remaining after incubation with supernatant, dilution 0.1x / degradation of substrate by GelE (in words): n = 3; for quantity (%) of substrate remaining after incubation with supernatant, dilution 0.001x: E. faecalis 30054A supernatant diluted 0.001x in bacterial culture medium; for quantity (%) of substrate remaining after incubation with supernatant, dilution 0.01x: E. faecalis 30054A supernatant diluted 0.01x in bacterial culture medium; for quantity (%) of substrate remaining after incubation with supernatant, dilution 0.1x: E. faecalis 30054A supernatant diluted 0.1x in bacterial culture medium; for degradation of substrate by GelE (in words): undiluted supernatants of E. faecalis 30054A, 30002, OG1RF, ΔgelE, ΔsprE, S613, Luminex, Fig. 4; for quantity (%) of substrate remaining after incubation with supernatant, dilution 1x: E. faecalis 30054A supernatant, 1x (undiluted), n = 3 independent experiments
T1 sequence (Q833V7 whole entry, looked up): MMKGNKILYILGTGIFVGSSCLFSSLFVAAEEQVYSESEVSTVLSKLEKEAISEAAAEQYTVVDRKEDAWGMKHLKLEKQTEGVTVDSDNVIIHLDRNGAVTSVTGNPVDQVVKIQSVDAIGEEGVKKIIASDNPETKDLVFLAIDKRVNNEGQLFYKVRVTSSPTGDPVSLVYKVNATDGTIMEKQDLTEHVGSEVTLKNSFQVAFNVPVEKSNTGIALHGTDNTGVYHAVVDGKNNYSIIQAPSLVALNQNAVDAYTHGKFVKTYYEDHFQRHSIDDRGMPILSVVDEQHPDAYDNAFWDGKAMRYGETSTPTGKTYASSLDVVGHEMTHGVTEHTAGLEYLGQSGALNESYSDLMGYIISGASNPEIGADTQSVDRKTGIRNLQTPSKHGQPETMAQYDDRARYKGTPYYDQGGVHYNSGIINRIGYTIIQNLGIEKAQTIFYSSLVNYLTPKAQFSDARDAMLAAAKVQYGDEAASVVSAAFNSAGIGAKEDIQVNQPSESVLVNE
Procedure: To gain a better understanding of the substrate preference of GelE, we also tested the ability of diluted supernatants of E. faecalis 30054A, from 1 to 0.0001×, to degrade the same panel of metabolic substrates (Table 1).
Bacterial supernatants were collected from an overnight culture by centrifugation as described above, diluted in bacterial culture medium as indicated, and incubated with recombinant protein (GenScript; Sigma, Tocris) of each analyte for 4 h at room temperature, followed by storage at –80°C until ready for analyte quantification. The Milliplex multiplex assay was run according to the protocol provided by the manufacturer.

E. faecalis 30054A = assay: Sensitivity of GLP-1-inhibitory activity to TPEN; format: cell-based, Enterococcus faecalis; details: E. faecalis 30054A grown overnight with increasing amounts of TPEN; supernatants incubated with 500 pM GLP-1, 4 h at room temperature; ELISA; n = 3
Description: Supplementary file : FIG S1 Sensitivity of GLP-1-inhibitory activity to TPEN. […] Data were obtained from three (n = 3) independent experiments (replicates 1 to 3) with mean ± SD shown for each replicate (technical variation). Linear regression with R^2 goodness-of-fit value and P value are reported. Download FIG S1, EPS file, 0.1 MB.

NCI-H716 cells = assay: GLP-1 secretion screen with bacterial supernatants on NCI-H716 cells (ELISA); format: cell-based, human; details: 2 h incubation at 37°C, total GLP-1 by ELISA, medium control = 100%, PMA at 2 μM, mean ± SD, n = 3
Procedure: NCI-H716 (American Type Culture Collection [ATCC] CCL-251) cells were grown in RPMI (ATCC) medium supplemented with 10% (vol/vol) heat-inactivated newborn calf serum (NBCS; Gibco). Cultures were maintained at a concentration of 2 × 10^5 to 8 × 10^5 cells/ml and used at passages 15 to 40 for cell studies. For cell studies, 96-well plates were coated with 100 μl of 10 mg/ml Matrigel (BD Biosciences) for 2 h at room temperature. Following coating, NCI-H716 cells were seeded at a concentration of 1 × 10^5 cells/well in Dulbecco’s modified Eagle’s medium (DMEM) supplemented with 10% (vol/vol) NBCS, as determined by trypan blue staining using a hemocytometer. Two days later, lyophilized bacterial supernatants were resuspended in Krebs buffer (Sigma) containing 0.2% (wt/vol) bovine serum albumin (BSA) and 0.03% (wt/vol) bovine bile and incubated on the NCI-H716 cells at 37°C with 5% CO2. […] Cell viability was monitored using the PrestoBlue cell viability reagent (Thermo Fisher Scientific), following the manufacturer’s instructions.

[2] = biological target: T2, E. faecalis metalloprotease GelE (bacterial supernatants) (Enterococcus faecalis, UniProt Q833V7); format: in vitro ADME; set-up: The secreted metalloprotease GelE serves E. faecalis by degrading misfolded surface proteins; endogenous in cells; host or cells: Enterococcus faecalis strains OG1RF, 30054A, 30002 (and TX5243 sprE mutant); culture supernatants; details: E. faecalis 30054A and 30002 supernatants; 200 pM GLP-1; 30 min at 100°C after incubation; ELISA; n = 2
Procedure: If GelE was targeting the ELISA and not GLP-1, one would expect to see high levels of GLP-1 in a sample heat treated after incubation with GLP-1, ensuring no further degradation by GelE during the ELISA.
Supplementary file : FIG S4 GLP-1-inhibitory activity with heat treatment pre- and postincubation. […] Data were obtained from two independent experiments (n = 2) and are expressed as the mean ± SD. Download FIG S4, PDF file, 0.02 MB.

[3] = biological target: E. faecalis metalloprotease GelE (apical supernatants) (Enterococcus faecalis, UniProt Q833V7); details: T84 transwell; approximately 500 pM GLP-1 in DMEM-F-12 basolateral; 16 h, 37°C, 5% CO2; ELISA; compared to DMEM-F-12 control; mean ± SD, four independent experiments
Procedure: Growth cultures and assays of T84 cells were performed by methods described previously, with slight modifications ([26]). T84 human colonic epithelial cells (ATCC CCL-248) were propagated in tissue culture-treated T75 flasks (Cellstar), as indicated by the ATCC. When between 90 and 100% confluence, T84 cells were treated with 0.25% trypsin and plated onto 24-well, 3.0-μm polycarbonate membrane transwell filters (catalog no. 3415; Costar) at a density of 8 × 10^4 cells/well.
To prepare bacteria, on the day of the assay E. faecalis strains were subcultured 1% (vol/vol) from an overnight culture into GM17 and grown for 5 h, as described above. Whole-culture (cells plus supernatant) samples were diluted in DMEM–F-12 (Gibco) to a concentration of 1 × 10^7 CFU/ml, and supernatant samples were diluted 50% in DMEM–F-12. All samples were neutralized to a pH of 6.8 to 7 using 3 M NaOH.
A final TEER measurement was taken for each monolayer.

[4] = biological target: T2, E. faecalis metalloprotease GelE (bacterial supernatants); details: 500 pM recombinant GLP-1; 4 h at room temperature; ELISA; vs GM17 medium control; mean ± SD, n = 4
Description: Two secreted proteases from E. faecalis are well known, the serine protease SprE and the metalloprotease GelE, both of which are regulated by the two-component, quorum-sensing fsr (faecalis system regulator) operon ([9]) (Fig. 2A). We obtained strains of E. faecalis containing null mutations in sprE (TX5243), gelE (TX5264), and fsrB (TX5266), as well as a gelE sprE double mutant (TX5128), all generated in the commonly used wild-type OG1RF E. faecalis strain ([10]).
Supernatants from E. faecalis protease mutants and controls (OG1RF, TX5266 [fsrB mutant], TX5264 [gelE mutant], TX5243 [sprE mutant], and TX5128 [gelE sprE mutant]) were collected from an overnight culture grown in GM17 aerobically at 37°C by centrifugation, as described above.

Row | Molecule | quantity (%) of substrate remaining after incubation with supernatant, dilution 0.0001x [1] [%] | quantity (%) of substrate remaining after incubation with supernatant, dilution 0.001x [1] [%] | quantity (%) of substrate remaining after incubation with supernatant, dilution 0.01x [1] [%] | quantity (%) of substrate remaining after incubation with supernatant, dilution 0.1x [1] [%] | degradation of substrate by GelE (in words) [1] | quantity (%) of substrate remaining after incubation with supernatant, dilution 1x [1] [%] | other results
1 | tumor necrosis factor alpha [TNFα] | 98.12 ± 1.67 | 99.28 ± 1.25 | 99.72 ± 0.48 | 87.87 ± 19.41 | less striking but still statistically significant |  | 
2 | monocyte chemoattractant protein-1 [MCP-1] | 98.33 ± 2.89 | 99.99 ± 0.01 | 99.92 ± 0.14 | 74.03 ± 44.98 | less striking but still statistically significant |  | 
3 | c1ccc(CN(CCN(Cc2ccccn2)Cc2ccccn2)Cc2ccccn2)nc1 [TPEN, N,N,N′,N′-tetrakis(2-pyridylmethyl)ethane-1,2-diamine] |  |  |  |  |  |  | effect on GLP-1 degradation by supernatant (E. faecalis 30054A): reduction in GLP-1 degradation
4 | CCCCCCCCCCCCCC(=O)O[C@@H]1[C@@H](C)[C@@]2(O)[C@@H](C=C(CO)C[C@]3(O)C(=O)C(C)=C[C@@H]23)[C@@H]2C(C)(C)[C@]12OC(C)=O [PMA, 4-Phorbol 12 myristate 13-acetate] |  |  |  |  |  |  | GLP-1 compared to the medium controls (NCI-H716 cells): 200%
5 | CC[C@H](C)[C@H](NC(=O)[C@H](Cc1ccccc1)NC(=O)[C@H](CCC(=O)O)NC(=O)[C@H](CCCCN)NC(=O)[C@H](C)NC(=O)[C@H](C)NC(=O)[C@H](CCC(N)=O)NC(=O)CNC(=O)[C@H](CCC(=O)O)NC(=O)[C@H](CC(C)C)NC(=O)[C@H](Cc1ccc(O)cc1)NC(=O)[C@H](CO)NC(=O)[C@H](CO)NC(=O)[C@@H](NC(=O)[C@H](CC(=O)O)NC(=O)[C@H](CO)NC(=O)[C@@H](NC(=O)[C@H](Cc1ccccc1)NC(=O)[C@@H](NC(=O)CNC(=O)[C@H](CCC(=O)O)NC(=O)[C@H](C)NC(=O)[C@@H](N)Cc1c[nH]cn1)[C@@H](C)O)[C@@H](C)O)C(C)C)C(=O)N[C@@H](C)C(=O)N[C@@H](Cc1c[nH]c2ccccc12)C(=O)N[C@@H](CC(C)C)C(=O)N[C@H](C(=O)N[C@@H](CCCCN)C(=O)NCC(=O)N[C@@H](CCCNC(=N)N)C(N)=O)C(C)C [GLP-1, glucagon-like peptide-1] |  |  |  |  |  |  | GLP-1 levels, supernatants heat treated after incubation with GLP-1 [2]: low GLP-1 levels; GLP-1 in the basolateral compartment, apical 30054A supernatant [3]: 3.1% ± 2.68%; GLP-1 in the basolateral compartment, apical OG1RF supernatant [3]: 1.6% ± 0.46%; GLP-1 level after incubation with OG1RF (wild-type) supernatant [4]: −0.06% ± 0.76%; GLP-1 level after incubation with ΔsprE mutant (TX5243) supernatant [4]: −0.14% ± 0.74%
6 | interleukin 6 [IL-6] | 95.74 ± 6.94 | 95.75 ± 7.36 | 99.91 ± 0.15 | 99.78 ± 0.37 | did not observe consistent degradation | 80.28 ± 24.77 | 
7 | leptin | 97.77 ± 3.87 | 99.78 ± 0.39 | 72.29 ± 1.72 | 7.95 ± 4.72 |  | 2.15 ± 0.96 | quantity (%) of substrate remaining after incubation with supernatant, dilution 0.1x ([1]; listed as leptin): 7.95% ± 4.72%
8 | insulin | 99.23 ± 1.33 | 99.97 ± 0.05 |  |  | less striking but still statistically significant | 57.29 ± 7.69 | 
